In paper PMC3702404 (Nature structural & molecular biology, 2013):
“And” between values parts separate entries of the source, which are not always exact repeats. Identical values can stand only once. Like-named read-outs stand apart in the source and are kept apart here.

B1: PpsR ΔHTH (domain or fragment, Rhodobacter sphaeroides)
chain: LAGGSLPSLAPDLVRDLIATAADISLLVSQEGVVREVMANPHHPSFGQLSEWEGRPLEEVLTAESVAKFRLRSEGLEPGRGSVAVELNHIDPRSFEFPIRYILHRLPADRSILMLGRDLRPIAEVQQQLVAAQLAMERDYETQREMETRYRVVLDVSRDPMVLVSMSTGRIVDLNSAAGLLLGGVRQDLLGAAIAQEFEGRRRGEFMETMTNLAATESAAPVEVLARRSQKRLLVVPRVFRAAGERLLLCQIDPADATQPVGDELSENLARLYHEGVDGIVFSDADGTIRGANEAFLNMTDSSSLAAIRGRSIADFLARGSVDLRVLIDSVRRTGQLRLYATRLTTDFAGQIAAEISATWLDDRERPLLVLVVRDTSR
B2: PpsR (full-length) (natural protein, Rhodobacter sphaeroides, UniProt Q3J179 1-464, looked up)
chain: MLAGGSLPSLAPDLVRDLIATAADISLLVSQEGVVREVMANPHHPSFGQLSEWEGRPLEEVLTAESVAKFRLRSEGLEPGRGSVAVELNHIDPRSFEFPIRYILHRLPADRSILMLGRDLRPIAEVQQQLVAAQLAMERDYETQREMETRYRVVLDVSRDPMVLVSMSTGRIVDLNSAAGLLLGGVRQDLLGAAIAQEFEGRRRGEFMETMTNLAATESAAPVEVLARRSQKRLLVVPRVFRAAGERLLLCQIDPADATQPVGDELSENLARLYHEGVDGIVFSDADGTIRGANEAFLNMTDSSSLAAIRGRSIADFLARGSVDLRVLIDSVRRTGQLRLYATRLTTDFAGQIAAEISATWLDDRERPLLVLVVRDTSRADTMRRPVPATGVIDEPARNVMELVGNSTLKDIVAETTDVVEKMCIETALELTRNNRVAAAEMLSLSRQSLYVKLRKFGLLNKDE
B3: AppA Δ399 C20S (domain or fragment, Rhodobacter sphaeroides)
chain: HDLEADVTMTGSDLVSCSYRSLAAPDLTLRDLLDIVETSQAHNARAQLTGALFYSQGVFFQWLEGRPAAVAEVMTHIQRDRRHSNVEILAEEPIAKRRFAGWHMQLSCSEADMRSLGLAESRQIVTVGRSLVADNTNIFSFDRIAAVRRFLSDVCAARTLAPDTPVEADTFALYALTEAQAGRSGRAKAVARLSDLLSTDPLGRLTEVEELLRAHAPTAADFARLFEACAERLTRALAEDRISRMQVTLAYSALQMALRRIHHLPDPQKSVGAVLVAGVPGHKPILEAALAAEMLRAVGWSTSVVHPESVAALAARLKTSRTSTLVVAPSLLEGTEQEADTLRFVSALRARTDLPGLSILVGGRLAQLPPSKLKDSGADAGFAHLALLPAALARVA

Tests used:
crystal structure = target: the molecule itself; test: crystal structure
MST = target: the molecule itself; test: MST
PpsR (full-length) [1] = target: B2; test: MST
PpsR (full-length) [2] = target: B2; test: native gel or EMSA
PpsR (full-length) [3] = target: B2; test: native gel or EMSA; remark: listed apart in the source
PpsR (full-length) [4] = target: B2; test: HDX-MS

Binder: B1
- stoichiometry N (crystal structure): 4 and 8

Binder: B2
- Kd (MST): 900 nM

Binder: B3
- Kd (PpsR (full-length) [1]): 1300 nM
- EC50 (PpsR (full-length) [2]): 1400 nM
- EC50 (PpsR (full-length) [3]): 2300 nM
- Kd (PpsR (full-length) [4]): ~1500 nM
